The source of these data is paper PMC2821528 (Molecular Microbiology, 2009).

Read-outs that look alike come from different tables or passages of the source.

In assay [1] the target is TolB (Escherichia coli) (UniProt P0A855). Conditions: cited from earlier work.
The target is the same in assay [2]. As to conditions: cited from earlier work. The source holds these as a separate data set.
In assay [3] the target is TolB (E. coli) (UniProt P0A855). The assay is described as follows: SPR.
Assay [4] shares this target. The assay is described as follows: SPR. The source holds these as a separate data set. (In general: In SPR one partner is held on a chip, and binding of the other changes the refractive index at the surface.)
The next assay has as its target Pal (Escherichia coli) (UniProt P0A912). As to conditions: cited from earlier work.
Another assay has as its target TolB (E. coli, UniProt P0A855 22-430). The assay is described as follows: SEC.

Colicin E9 (from UniProt P09883): the results for the Kd with TolB (Escherichia coli) [1] and with TolB (Escherichia coli) [2] were 90 nM and 1000 nM, respectively. For the molecule “TA_(1–107), 107-residue peptide of the translocation domain of colicin A (domain or fragment)”, the Kd amounted to 24300 nM with TolB (E. coli) [3] and 1600 nM with TolB (E. coli) [4].

Regarding TolB (from UniProt P0A855), in the assay with Pal (Escherichia coli), the Kd was 90 nM.

B1: Pal, soluble periplasmic domain (residues 65–173) (domain or fragment, E. coli, UniProt P0A912 65-173, looked up)
chain: LQQNNIVYFDLDKYDIRSDFAQMLDAHANFLRSNPSYKVTVEGHADERGTPEYNISLGERRANAVKMYLQGKGVSADQISIVSYGKEKPAVLGHDEAAYSKNRRAVLVY
Consider B1, for which, in the assay with TolB, the binding result is reported as “binds”.

As usually defined, the Kd is the equilibrium constant for the complex coming apart.
